Test results from patent US20100022459A1.

Molecular target: β-amyloid1-42 (UniProt P05067)
Assay: cell-based or functional assay

An amount of globulomers (densitometry of the 6E10 western blot) (% of the control) of 45 was found for D-Trp-Aib (peptide) in this work.
